The text below walks through data of the supplement of paper PMC12042874.

± gives the uncertainty stated by the source.

A short description of the series: amyloid nucleation score (Sup35N fusion, yeast selection) (log enrichment); library NNK3; higher = more nucleation; inactive = no reads after selection. In short, it runs like this:
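The nucleation score is the DiMSum log enrichment of output over input reads, centred on the mode score of non-aggregating sequences. Only sequences with 100 or more input reads were scored, using Illumina sequencing of input and output plasmid inserts. Psi-negative yeast expressing Sup35N fused to peptides of 20 random codons were induced 24 hours with 100 μM copper sulfate and grown 7 days at 30°C on medium lacking adenine and uracil.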

As to WYLSYSTIAFHYWEFYGYAD, the amyloid nucleation score result was “inactive”. Regarding DQHFCKSEREGTRYWLRLTI, the amyloid nucleation score result is “inactive”. Next, SVHPGTRG: “inactive”; DNCCKLARVLAWFVFNRLNR: “inactive”. In the case of AVRCPLNMHLRGRAVVQYKG, the amyloid nucleation score entry is “inactive”. The value for SSEHFGCEASGVAER was “inactive”; that for WRSMAFPVVK was 0.988 ± 0.13. HNSACFANSDEVSVASRAMT: the amyloid nucleation score worked out at 2.45 ± 0.08. Next, VFLPGRSIKWFLMAEKLRNH: “inactive”. The value for VASVWLDIPMYLFSQLRTKT was “inactive”; that for KIICRAWYMSVGERRA was -0.449 ± 1.4; that for YMIATGTVGWNRLTLKCVVV was “inactive”. As for SCGSSH, the amyloid nucleation score entry was “inactive”. Next, NMMSGRSQSVINFVYVDFHP: -0.183 ± 0.66; FIIWAMDWVFASRL: “inactive”; WISSGDIGRVVDWIQVCIEP: “inactive”. Consider FVGVYKMGFASCSMSGSGWV, for which the amyloid nucleation score result is “inactive”. The substance GSMFFNVC had an amyloid nucleation score of 0.254 ± 0.28. Next, CVWML: “inactive”; STIVL: “inactive”. RVKVSYASYARK yielded an amyloid nucleation score of 1.49 ± 0.12. Next, VRYWTTPVL: “inactive”; LGGYFLFNIITVGSTGMRKH: 2.06 ± 0.089; TMSLFTTSVCCWTKGAIRHS: “inactive”. As to SSIGFLRSLGHQRPRSVSLP, the amyloid nucleation score entry was “inactive”. The value for IGRLMA was “inactive”; that for SHSWQLSYSKSRYVIDAIAR was “inactive”; that for AFFGCCYGRDLVEHW was 1.49 ± 0.1. The value for NGWCHYWVWASIYDPNEISA was “inactive”; that for ILWQYQTCC was -0.457 ± 0.73. Regarding MGGICRASRCCGCPTGRNCL, the amyloid nucleation score is 0.665 ± 0.27. Consider AHREFLFRMTVWNITKGLIL, for which the amyloid nucleation score is -0.481 ± 0.9.

As to GLTLFWITAVAQAWDWLDPL, the amyloid nucleation score result was “inactive”. Take LGSTKSPLSCVY: the amyloid nucleation score entry is “inactive”. Next, FCKLQYTGQS: “inactive”. Consider VPRMSALRESFHKDNS, for which the amyloid nucleation score result was “inactive”. Next, IAQIFLACRTVT: “inactive”; SAIYMTVTVLVPFGFEMDNK: 0.178 ± 0.49.

As to GQPAH, the amyloid nucleation score result is “inactive”. Next, CEMLMGRVIFWSPQPQLWNY: “inactive”; NRYLFLIGSA: “inactive”.

For IVHVSLWKMSISPIWEWSMI, the amyloid nucleation score was 0.006 ± 0.37. The value for LASVLEYESWLSLFIWQSKH was 0.195 ± 0.34.

On to SNGWFYFCFVSWWHSSFDGS, for which the amyloid nucleation score entry was “inactive”. The value for RSSKSEGYGFVGVGI was “inactive”; that for GCGRTEMNVSMSGPSRMVDL was “inactive”; that for WRDRNF was 1.3 ± 0.15.

In the case of CQCMSFIRTNSYKDFT, the amyloid nucleation score entry was “inactive”. Next, KRVRVRFASAMHGLMSHPDT: “inactive”.

YISLDVTSIVGFVENIKQCV returned an amyloid nucleation score of 1.65 ± 0.068. With CRDKANVLAAVRRR, the amyloid nucleation score result was “inactive”.

Consider QVCYFYIIVLVLD, for which the amyloid nucleation score entry is “inactive”. Regarding FNDVLMAVITLSVIDTLMWT, the amyloid nucleation score entry was “inactive”. The value for WNLFDHRIGNKQRNGYDVYE was “inactive”. On to CVRVSPRSDYNQMMVRMGQW, for which the amyloid nucleation score result was “inactive”. For the substance QGNCVNRIC, the amyloid nucleation score result was “inactive”. The value for VCYDVCGRGWTCQY was -0.011 ± 0.42; that for GDFTSLDVVYYGNDCTLF was “inactive”. The value for TLNVVPR was “inactive”; that for QFSNNSLKVRFMCVLYVVDR was -0.039 ± 0.37; that for TMNAICLNPVS was “inactive”. Next, TLLDVPRSRLWSKFWLCVQL: “inactive”. Substance WNVPGVHCCIWVTRWEMGPT gave an amyloid nucleation score of 2.72 ± 0.078. Next, SRYMNRR: “inactive”. Take SGVTHDHLTYVLGGGKVVSR: the amyloid nucleation score entry was “inactive”. For the substance FKCTVIGDTILPNTFSLWRF, the amyloid nucleation score result was “inactive”. Next, HKITVNLS: “inactive”; CALHRAGRTLVCFIYIFSGM: “inactive”; LRKSLTEQPPKGLASRLYWS: “inactive”. The value for FLANGSDWIFLWFRIHVDHF was “inactive”.

On to SVDGDLAEDNMLMVSFSIGK, for which the amyloid nucleation score was 0.128 ± 0.54. The value for LFYKREALMRGISSFKELSN was “inactive”; that for TNQALTMNCHPG was “inactive”; that for SILSPYLV was “inactive”.

On to GVKGFQRQKRIFFGFCEFKV, for which the amyloid nucleation score entry is “inactive”. Next, FVSLALGFGILSFYKDRLWD: 0.598 ± 0.33; TKYFRSNNPFHLVYTYIYLT: “inactive”. Turning to ILPFRWIVY, the amyloid nucleation score result was “inactive”. The value for YYFHRFL was “inactive”; that for WLLEKYKLCMGWFFYSDFLT was “inactive”. Next, FHVTVFWNRHNSDLMVLHR: “inactive”; PDSMNFTPDNHHVRNGYNNF: “inactive”. In the case of ESCGRSQHPKEAKELESGAG, the amyloid nucleation score entry was “inactive”. For IQSSYSMYIEWL, the amyloid nucleation score entry is “inactive”.

On to LSVSYTLALTALLRHRERVW, for which the amyloid nucleation score entry was “inactive”. Next, ARSDGLF: “inactive”; SAGYGLPPPVEYFNWPFSC: -0.394 ± 1.9.

Consider LVIVRWNAVYTYIGFDF, for which the amyloid nucleation score entry is “inactive”. Next, TSHPYNHVESSG: 0.972 ± 0.095; FSSCDHRFWTFLIKFMLLAL: “inactive”; QTMAAYLYSWNNTV: “inactive”. Regarding RSSSCVLFTAGTQNNRVFVV, the amyloid nucleation score result was “inactive”.

Regarding CRTQL, the amyloid nucleation score entry was “inactive”. In the case of SVTLLFLKLYIR, the amyloid nucleation score entry was “inactive”. The value for ARTIELMECNISVNSIVWQG was 1.98 ± 0.089. The value for MKNRYLNRCTLVANAFGLKE was “inactive”; that for SVYSITSCMHGVAQSEVMFD was 1.1 ± 0.16.

Take SVNCHHLPNLHCWKYTKVEY: the amyloid nucleation score result is “inactive”. Next, HMVSTDVTENLWFRQ: “inactive”. Next, NVHVISVFGFYEVTLFNDEV: “inactive”; LGVWRGIGPWRWAKKRWRVA: “inactive”; AILSTLVNTVNRELRQGRLM: “inactive”.

With RKWMHMDASVCVTIYWDAGL, the amyloid nucleation score is 0.38 ± 0.4. Next, FLNFSGLPGFVCPVIPSHYV: “inactive”. As for INVVIRSSHFECTGC, the amyloid nucleation score came out at 1.15 ± 0.11. Next, HPMLFSFYVKGRVFLSRV: “inactive”; SNYWNWGRGYVCSRFRELVI: “inactive”. The value for VITVSVTHNNANFFQMTDGM was 2.88 ± 0.055; that for VPWGIVSFA was “inactive”. Next, DRSDSMYPINMREESREFTF: “inactive”; TRNPDKLCANVLDNRH: “inactive”. For FSGRFHMENTMYHTIYKIKS, the amyloid nucleation score entry is “inactive”. In turn, VSMIKRLGHCGVLGGKTYRV showed an amyloid nucleation score of -0.671 ± 0.8.

Turning to SFSYFRVSFEYGRCHRYAEN, the amyloid nucleation score entry was “inactive”. The value for DYSIAVGYWSFHVN was “inactive”.

As for WRHDMSIFQAQLSTLVGI, the amyloid nucleation score result was “inactive”. Next, KLQYYVALSAT: “inactive”; VNVVEFTRFRAW: 0.585 ± 0.35. On to VGCIRGNGFVTQQATGY, for which the amyloid nucleation score entry was “inactive”. The value for TYFYSIIYYIYGYVFLRRAY was -0.346 ± 0.8; that for FELPSVKGGCILPSQILP was -0.517 ± 0.73; that for DIVVGAQRNELFS was “inactive”. Next, FDVVWL: “inactive”; MKDASFQP: “inactive”.

On to KHRYAYGRRTNCWASHYLRG, for which the amyloid nucleation score result is “inactive”. The value for LHVSTRFA was “inactive”. As to WTKECISIGRTWIYRRVGRG, the amyloid nucleation score worked out at 0 ± 0.59. The value for ITARLVTS was “inactive”; that for APRFRFQTVHRSFVRSRKLR was “inactive”. In the case of TQDCG, the amyloid nucleation score result was “inactive”. Next, VVNIRDATWAFKLLCGEAHV: “inactive”. The value for DMRVFANMWLVEIPVPS was “inactive”. Next, MCTNMSRNQFITDIVLCDRS: “inactive”.
